This passage reports Kd, koff and kon results from publication PMC7948472, “Structural basis for antigen recognition by methylated lysine–specific antibodies” (The Journal of Biological Chemistry, 2020).

This test deals with T1, MAP3K2 peptide, NPIFEKFGKGGTYP (Homo sapiens).
T1 construct: MAP3K2 peptide surrounding Lys260, not methylated; also called non-methylated peptide; nonmethylated peptide; source: synthetic peptide (SCRUM Inc)
T1 chain: NPIFEKFGKGGTYP
Kind of test: SPR; Biacore T200; each Fab immobilised on a CM5 chip by amine coupling; peptides injected at increasing concentrations; running buffer PBS with 0.005% Tween 20; global fitting of the curves, or steady-state analysis where kinetic parameters could not be determined (fast dissociation, low affinity). Particulars: both partners purified. A general note: Surface plasmon resonance follows binding to a sensor surface in real time, without labels.

B1: Fab F9 (Fab, V domains shown)
VH: QSVEESGGRLVTPGTPLTLTCTVSGFSLNSNAISWVRQAPGEGLEWVGAIYTHGSTVYANWAKGRFTISKTSTTIELKMTSLTTEDTATYFCARHGYTYSFNLWGPGTLVTVSS
VL: AQGLTQTPSPVSAALGGTVTINCQSSQSVYGNNRLAWYQQKPGQPPKRLIYQASTLDSGVPSRFSGSGSGTQFTLTISGVQCDDAATYYCQGGYSSGDAWAFGGGTEVVVK
notes: heavy chain of rabbit Fab clone F9; they are in PDB 6LDV chain H; light chain of rabbit Fab clone F9; they are in PDB 6LDV chain L; Purified on Ni-NTA, so a His tag is surmised; source: Expi293 cells, cotransfected, purified from supernatant (Ni-NTA, SEC)
Molecule B1 showed a Kd of 4000 nM, a koff of 0.33 ± 0.04 s⁻¹ and a kon of 86000 M⁻¹ s⁻¹.

B2: Fab E6 (Fab, V domains shown)
VH: DQSLEESGGRLVTPGTPLTLTCTVSGFSLNNNAMGWFRQAPGEGLEWIGAIYTDGSTYYASWAKGRFTISKTSTTIDLKMTSLTTEDTATYFCARHGYTYSFNLWGPGTLVTVSS
VL: DPVMTQTPPSVSAAVGGTVTISCQSSQSVYNNDNLAWYQQKPGQPPKRLIYGASTLDSGVPSRFKGSGSGTQFTLTISGVECDDAATYYCQGAYNVDIYPFGGGTEVVVK
notes: heavy chain of rabbit Fab clone E6; they are in PDB 6LDX chain H; light chain of rabbit Fab clone E6; they are in PDB 6LDX chain L; Purified on Ni-NTA, so a His tag is surmised; source: Expi293 cells, cotransfected, purified from supernatant (Ni-NTA, SEC)
Molecule B2 registered a Kd of 350 nM, an off-rate constant (koff) of 0.18 ± 0.01 s⁻¹ and a kon of 500000 M⁻¹ s⁻¹.

As a reminder, the Kd is the constant that tells how readily two partners part at equilibrium. By koff is commonly meant a measure of how fast the partners let go of each other. Higher therefore signals fast dissociation. A word on the kon: it is the rate constant with which the complex forms. A low value points to slower complex formation.
